Measured values from patent US8669352 (PANGENETICS B V, dated 2014).
Substitutions are numbered along the chain they refer to. Numbers in names are those of the source.

B1: E16Q variant of deimmunised 5D12 (antibody, human IgG4, V domains shown)
VH: QVKLQESGPGLVKPSQTLSITCTVSGFSISRYSVYWIRQPPGKGPEWMGMMWGGGSTDYSTSLKSRLTISKDTSKSQVSLKMNSLRTDDTAMYYCVRTDGDYWGQGTTVTVSS
VL: ELQLTQSPLSLPVTLGQPASISCRSSQSLANSNGNTYLHWYLQRPGQSPRLLIYKVSNRFSGVPDRFSGSGSGTDFTLKISRVEAEDVGVYYCSQSTHVPWTFGGGTKLEIKR
notes: VH on a human IgG4 backbone
B2: I37V variant of deimmunised 5D12 (antibody, human IgG4, V domains shown)
VH: B1 VH with Q16E, I37V
VL: B1 VL
notes: VH on a human IgG4 backbone; also called 137V; 29I-37V
B3: K13A variant of deimmunised 5D12 (antibody, human IgG4, V domains shown)
VH: B1 VH with K13A, Q16E
VL: B1 VL
notes: VH on a human IgG4 backbone
B4: M48L variant of deimmunised 5D12 (antibody, human IgG4, V domains shown)
VH: B1 VH with Q16E, M48L
VL: B1 VL
notes: VH on a human IgG4 backbone
B5: P45L variant of deimmunised 5D12 (antibody, human IgG4, V domains shown)
VH: B1 VH with Q16E, P45L
VL: B1 VL
notes: VH on a human IgG4 backbone
B6: Q5E variant of deimmunised 5D12 (antibody, human IgG4, V domains shown)
VH: B1 VH with Q5E, Q16E
VL: B1 VL
notes: VH on a human IgG4 backbone
B7: S79F variant of deimmunised 5D12 (antibody, human IgG4, V domains shown)
VH: B1 VH with Q16E, S79F
VL: B1 VL
notes: VH on a human IgG4 backbone
B8: STS60NSA variant of deimmunised 5D12 (antibody, human IgG4, V domains shown)
VH: B1 VH with Q16E, S60N, T61S, S62A
VL: B1 VL
notes: VH on a human IgG4 backbone
B9: T17S variant of deimmunised 5D12 (antibody, human IgG4, V domains shown)
VH: B1 VH with Q16E, T17S
VL: B1 VL
notes: VH on a human IgG4 backbone
B10: T68S variant of deimmunised 5D12 (antibody, human IgG4, V domains shown)
VH: B1 VH with Q16E, T68S
VL: B1 VL
notes: VH on a human IgG4 backbone
B11: T108S variant of deimmunised 5D12 (antibody, human IgG4, V domains shown)
VH: B1 VH with Q16E, T108S
VL: B1 VL
notes: VH on a human IgG4 backbone

How the values were obtained:
human CD40 [1] = target: T1, human CD40 (human, UniProt P25942 21-277); assay: FACS on JY cells expressing CD40; 100 µl PER.C6 transient supernatant harvested after 48 h (antibody concentration not equalised), FITC anti-human IgG 1/100; in the same figure Mock Control Mean 11.25 / Median 8.74, FACS control (secondary only) Mean 10.18 / Median 8.74
T1 construct: whole, on cells; also called huCD40; CD40 expressed on JY cells
T1 sequence (P25942 21-277): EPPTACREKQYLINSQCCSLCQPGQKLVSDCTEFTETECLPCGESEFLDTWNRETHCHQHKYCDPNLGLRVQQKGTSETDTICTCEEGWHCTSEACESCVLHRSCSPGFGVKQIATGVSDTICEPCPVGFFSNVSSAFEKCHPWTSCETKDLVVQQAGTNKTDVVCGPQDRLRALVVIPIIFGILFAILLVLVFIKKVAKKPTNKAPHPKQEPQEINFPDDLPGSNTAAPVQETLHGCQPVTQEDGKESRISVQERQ
Method: (§1) FIG. 8. FACS analysis using JY cells. PER.C6 cell supernatant of the transient expressed variants (Q5E, K13A, E16Q, T17S, I29L, 37V, P45L, M48L, STS60NSA, T68S, S79F, and T108S) of 5D12 was harvested after 48 h. As control also supernatant was harvested of cells transfected with either ch5D12 or D15D12 together with supernatant from mock (no plasmid) transfected cells. Binding of expressed antibodies was tested by FACS using JY cells together with anti-human FITC labelled secondary antibody (1/100 diluted). As FACS control JY cells were incubated with only the secondary FITC labelled antibody.
(§2) By FACS analysis the antigen specificity of the expressed antibodies was analyzed. JY cells are EBV transformed human B-cells, which express CD40. Briefly, 100,000 JY cells were incubated with 100 µl supernatant from the transient expression experiment at 4° C. for 20 minutes. To remove unbound antibody cells were washed with PBS containing 0.05% NaAzide and 1% BSA. As secondary antibody 1/100 diluted FITC labeled anti-human IgG (Jackson 109-095-127) was used. After 20 minutes incubation at 4° C. cells were washed. Finally cell samples were measured on a FACScan (BD).

human CD40 [2] = target: T1, human CD40; assay: FACS on JY cells expressing CD40; 100 µl PER.C6 transient supernatant harvested after 48 h (antibody concentration not equalised), FITC anti-human IgG 1/100; in the same figure Mock Control Mean 11.25 / Median 8.74, FACS control (secondary only) Mean 10.18 / Median 8.74 [Condt.]
Method: as §1, §2

Binder	Mean (FL1-H) (human CD40 [1])	Median (FL1-H) (human CD40 [1])	Mean (FL1-H) (human CD40 [2])	Median (FL1-H) (human CD40 [2])
B1	39.5	38.2		
B2	96	82		
B3	31.2	30		
B4			80.3	72.3
B5			82.5	74.3
B6	39	37.5		
B7			96.4	82
B8			62.4	58.8
B9	33.4	31.9		
B10			35.2	34
B11			99	85.8
